Reference: patent US20150284467A1 (MAX DELBR CK CENTRUM F R MOLEKULARE MEDIZIN, published 2015)

What was measured:
[1] = molecular target: T1, extracellular domain of human CD269 (BCMA, TNFRSF17), purified (human, UniProt Q02223 4-54); experiment: surface plasmon resonance with several concentrations of BCMA (FIG. 1c)
T1 construct: also called BCMA extracellular domain
T1 sequence: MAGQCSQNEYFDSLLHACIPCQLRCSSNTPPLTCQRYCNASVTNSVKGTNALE

[2] = molecular target: T1, extracellular domain of human CD269 …; experiment: SPR, value printed beside the trace for 1.1 nM BCMA; neither quantity nor unit is printed on the sheet: the five printed values average 5.40E-11, which is the mean Kd of 54 pM in paragraph 181
[3] = molecular target: T1, extracellular domain of human CD269 …; experiment: SPR, value printed beside the trace for 10.0 nM BCMA; neither quantity nor unit is printed on the sheet: the five printed values average 5.40E-11, which is the mean Kd of 54 pM in paragraph 181
[4] = molecular target: T1, extracellular domain of human CD269 …; experiment: SPR, value printed beside the trace for 30.0 nM BCMA; neither quantity nor unit is printed on the sheet: the five printed values average 5.40E-11, which is the mean Kd of 54 pM in paragraph 181
[5] = molecular target: T1, extracellular domain of human CD269 …; experiment: SPR, value printed beside the trace for 90.0 nM BCMA; neither quantity nor unit is printed on the sheet: the five printed values average 5.40E-11, which is the mean Kd of 54 pM in paragraph 181
[6] = molecular target: T1, extracellular domain of human CD269 …; experiment: SPR, value printed beside the trace for 3.3 nM BCMA; neither quantity nor unit is printed on the sheet: the five printed values average 5.40E-11, which is the mean Kd of 54 pM in paragraph 181

B1: J22.9-xi chimeric antibody (mouse VH/VL of hybridoma J22.9 on human IgG1 and kappa constant domains) (antibody, V domains shown)
VH: QVQLQQSGGGLVQPGGSLKLSCAASGIDFSRYWMSWVRRAPGKGLEWIGEINPDSSTINYAPSLKDKFIISRDNAKNTLYLQMSKVRSEDTALYYCASLYYDYGDAMDYWGQGTSVTVSS
VL: DIVMTQSQRFMTTSVGDRVSVTCKASQSVDSNVAWYQQKPRQSPKALIFSASLRFSGVPARFTGSGSGTDFTLTISNLQSEDLAEYFCQQYNNYPLTFGAGTKLELKR
modifications: N-linked oligosaccharide chain at Asn297
notes: Full length IgG made in 293-6E cells; the constant domains are marked 'Used in J22.9-xi'
Kd [1]: 0.054 nM
Kd [2]: 0.021 nM
Kd [3]: 0.0555 nM
Kd [4]: 0.0695 nM
Kd [5]: 0.088 nM
Kd [6]: 0.0362 nM
